One data set has as its system MCF7. Kind of data set: percentage of EdU-negative (G0-arrested) nuclei per well, 72 h; higher = more G0 arrest. As to conditions: reference: sequence is the full UniProt precursor, the tested protein was the secreted form or ectodomain.
The next data set has as its system hTERT-HMEC. Described as above. The settings on record: reference: sequence is the full UniProt precursor, the tested protein was the secreted form or ectodomain.
[1] abbreviates: protein concentration 0.00742857 µM.
Where [2] appears, read: protein concentration 0.0225 µM.
[3] abbreviates: protein concentration 0.0742857 µM.
Where [4] appears, read: protein concentration 0.03125 µM.
Setting [5] is: protein concentration 0.3125 µM.
Where [6] appears, read: protein concentration 0.0257143 µM.
Setting [7] is: protein concentration 0.257143 µM.
The mark [8] stands for this setting: protein concentration 0.01575 µM.
Where [9] appears, read: protein concentration 0.1575 µM.

± gives the standard deviation of the averaged measurements.

We go through 7 sequences from the supplement of paper PMC11316812.
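Note: secreted proteins added to cultured cells, EdU pulse at the end, nuclei found by Hoechst imaging, EdU status from nuclear versus surrounding ring intensity ratio, PBS as neutral control.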

Consider “MRSLGALLLLLSACLAVSAGPVPTPPDNIQVQENFNISRIYGKWYNLAIGSTCPWLKKIMDRMTVSTLVLGEGATEAEISMTSTRWRKGVCEETSGAYEKTDTDGKFLYHKSKWNITMESYVVHTNYDEYAIFLTKKFSRHHGPTITAKLYGRAPQLRETLLQDFRVVAQGVGIPEDSIFTMADRGECVPGEQEPEPILIPRVRRAVLPQEEEGSGGGQLVTEVTKKEDSCQLGYSAGPCMGMTSRYFYNGTSMACETFQYGGCMGNGNNFVTEKECLQTCRTVAACNLPIVRGPCRAFIQLWAFDAVKGKCVLFPYGGCQGNGNKFYSEKECREYCGVPGDGDEELLRFSN”, for which the “percentage of EdU-negative” value is 27.22 ± 0.12% in the data set with MCF7 (setting [1]); 23.9 ± 0.98% in the data set with MCF7 (setting [2]); 26 ± 2.5% in the data set on MCF7 (setting [3]); 25.2 ± 1.6% in the data set on MCF7 (protein concentration 0.225 µM); 4.92 ± 0.19% with hTERT-HMEC (setting [1]); 5.59 ± 1.2% in the data set with hTERT-HMEC (setting [2]). In addition, the “percentage of EdU-negative” value in the data set with hTERT-HMEC (setting [3]) was 7.02 ± 1.1%; with hTERT-HMEC (protein concentration 0.225 µM), 5.52 ± 0.57%.

As to “MRSLLLLSAFCLLEAALAAEVKKPAAAAAPGTAEKLSPKAATLAERSAGLAFSLYQAMAKDQAVENILVSPVVVASSLGLVSLGGKATTASQAKAVLSAEQLRDEEVHAGLGELLRSLSNSTARNVTWKLGSRLYGPSSVSFADDFVRSSKQHYNCEHSKINFRDKRSALQSINEWAAQTTDGKLPEVTKDVERTDGALLVNAMFFKPHWDEKFHHKMVDNRGFMVTRSYTVGVMMMHRTGLYNYYDDEKEKLQIVEMPLAHKLSSLIILMPHHVEPLERLEKLLTKEQLKIWMGKMQKKAVAISLPKGVVEVTHDLQKHLAGLGLTEAIDKNKADLSRMSGKKDLYLASVFHATAFELDTDGNPFDQDIYGREELRSPKLFYADHPFIFLVRDTQSGSLLFIGRLVRPKGDKMRDEL”, the “percentage of EdU-negative” value in the data set on MCF7 (setting [4]) is 26.6 ± 2.3%; in the data set on MCF7 (setting [5]) it was 27.2 ± 1.1%; in the data set on hTERT-HMEC (setting [4]), 4.8 ± 0.84%; in the data set with hTERT-HMEC (setting [5]), 7.55 ± 1%.

As for “MRTADREARPGLPSLLLLLLAGAGLSAASPPAAPRFNVSLDSVPELRWLPVLRHYDLDLVRAAMAQVIGDRVPKWVHVLIGKVVLELERFLPQPFTGEIRGMCDFMNLSLADCLLVNLAYESSVFCTSIVAQDSRGHIYHGRNLDYPFGNVLRKLTVDVQFLKNGQIAFTGTTFIGYVGLWTGQSPHKFTVSGDERDKGWWWENAIAALFRRHIPVSWLIRATLSESENFEAAVGKLAKTPLIADVYYIVGGTSPREGVVITRNRDGPADIWPLDPLNGAWFRVETNYDHWKPAPKEDDRRTSAIKALNATGQANLSLEALFQILSVVPVYNNFTIYTTVMSAGSPDKYMTRIRNPSRK”, the “percentage of EdU-negative” value in the data set with MCF7 (setting [2]) amounted to 25.7 ± 0.36%; in the data set with MCF7 (protein concentration 0.225 µM), 29.2 ± 3.5%; with hTERT-HMEC (setting [2]) it was 5.28 ± 0.13%; with hTERT-HMEC (protein concentration 0.225 µM), 7.812 ± 0.044%.

Turning to “MRTIAILAAILLVALQAQAESLQERADEATTQKQSGEDNQDLAISFAGNGLSALRTSGSQARATCYCRTGRCATRESLSGVCEISGRLYRLCCR”, the “percentage of EdU-negative” value worked out at 27.1 ± 0.85% with MCF7 (setting [2]), 25.5 ± 1.3% with MCF7 (protein concentration 0.225 µM), 4.85 ± 0.56% in the data set on hTERT-HMEC (setting [2]) and 5.716 ± 0.019% with hTERT-HMEC (protein concentration 0.225 µM).

Turning to “MRTLTILTAVLLVALQAKAEPLQAEDDPLQAKAYEADAQEQRGANDQDFAVSFAEDASSSLRALGSTRAFTCHCRRSCYSTEYSYGTCTVMGINHRFCCL”, the “percentage of EdU-negative” value with MCF7 (setting [2]) turned out to be 26.4 ± 0.96%; with MCF7 (protein concentration 0.225 µM) it was 26.4 ± 0.12%; with hTERT-HMEC (setting [2]) it was 4.63 ± 0.29%; in the data set on hTERT-HMEC (protein concentration 0.225 µM) it was 5.921 ± 0.038%.

Turning to “MRTQSLLLLGALLAVGSQLPAVFGRKKGEKSGGCPPDDGPCLLSVPDQCVEDSQCPLTRKCCYRACFRQCVPRVSVKLGSCPEDQLRCLSPMNHLCHKDSDCSGKKRCCHSACGRDCRDPARGTAPGCPGQANSDLGSVALHLSWGPTERVHDGRPGALPAGQHYLYQRWFQPSDNHWPADTSLQPIHPWFLLLGVKVHSLSSEEGLCITPVLCTTAIRASHPS [Q8TCV5]”, the “percentage of EdU-negative” value in the data set on MCF7 (setting [6]) was 23.5 ± 0.78%; with MCF7 (setting [7]) it was 28.7 ± 0.3%; with hTERT-HMEC (setting [6]), 5.766 ± 0.04%; in the data set on hTERT-HMEC (setting [7]), 5.25 ± 1.3%.

For “MRTVVLTMKASVIEMFLVLLVTGVHSNKETAKKIKRPKFTVPQINCDVKAGKIIDPEFIVKCPAGCQDPKYHVYGTDVYASYSSVCGAAVHSGVLDNSGGKILVRKVAGQSGYKGSYSNGVQSLSLPRWRESFIVLESKPKKGVTYPSALTYSSSKSPAAQAGETTKAYQRPPIPGTTAQPVTLMQLLAVTVAVATPTTLPRPSPSAASTTSIPRPQSVGHRSQEMDLWSTATYTSSQNRPRADPGIQRQDPSGAAFQKPVGADVSLGLVPKEELSTQSLEPVSLGDPNCKIDLSFLIDGSTSIGKRRFRIQKQLLADVAQALDIGPAGPLMGVVQYGDNPATHFNLKTHTNSRDLKTAIEKITQRGGLSNVGRAISFVTKNFFSKANGNRSGAPNVVVVMVDGWPTDKVEEASRLARESGINIFFITIEGAAENEKQYVVEPNFANKAVCRTNGFYSLHVQSWFGLHKTLQPLVKRVCDTDRLACSKTCLNSADIGFVIDGSSSVGTGNFRTVLQFVTNLTKEFEISDTDTRIGAVQYTYEQRLEFGFDKYSSKPDILNAIKRVGYWSGGTSTGAAINFALEQLFKKSKPNKRKLMILITDGRSYDDVRIPAMAAHLKGVITYAIGVAWAAQEELEVIATHPARDHSFFVDEFDNLHQYVPRIIQNICTEFNSQPRN [Q6UXI7]”, the “percentage of EdU-negative” value with MCF7 (setting [8]) stood at 27 ± 0.45%; in the data set with MCF7 (setting [9]), 23.4 ± 0.87%; with hTERT-HMEC (setting [8]), 5.15 ± 0.69%; in the data set on hTERT-HMEC (setting [9]), 6.71 ± 1.1%.
